Test results published in paper doi:10.1101/2025.03.30.646023 (bioRxiv, 2025).

Molecular target: SARS-CoV-2 (ancestral strain) RBD protein (SARS-CoV-2 ancestral strain, UniProt P0DTC2)
Experiment: SPR

B1: PRO-37587 (antibody, V domains shown)
VH: QVQLVQSGAEVKKPGSSVKVSCKASGDTSDTYTISWVRQAPGQGLEWMGRIILLSGYANYAQKIQGRVTITADKSTSTAYMELTSLRSDDTAVYYCARGFNGDYYGWGDDDAFDFWGQGTLVTVYS
VL: QTVLTQPPSVSGAPGQRVTISCTGSSSNIGAGYRVHWYQQLPGTAPKLLIAGRSNRPSGVPDRFSGSKSGTSASLAITGLQAEDEADYYCQSYDSSLFDPHWVFGGGTKLTVL
Q: Does B1 bind?
A: binds
